Among the data in patent US20090098111A1 are half-maximal induction of kinase activity values, retold here.

The target in this test is Xatr-XatripΔN222-FLAG complex (Xenopus laevis). Put plainly: cell-based or functional assay.
Xatr-XatripΔN222-FLAG complex (Xenopus laevis), sequence (Q5EGL8 whole entry, stated change not applied, one chain of several): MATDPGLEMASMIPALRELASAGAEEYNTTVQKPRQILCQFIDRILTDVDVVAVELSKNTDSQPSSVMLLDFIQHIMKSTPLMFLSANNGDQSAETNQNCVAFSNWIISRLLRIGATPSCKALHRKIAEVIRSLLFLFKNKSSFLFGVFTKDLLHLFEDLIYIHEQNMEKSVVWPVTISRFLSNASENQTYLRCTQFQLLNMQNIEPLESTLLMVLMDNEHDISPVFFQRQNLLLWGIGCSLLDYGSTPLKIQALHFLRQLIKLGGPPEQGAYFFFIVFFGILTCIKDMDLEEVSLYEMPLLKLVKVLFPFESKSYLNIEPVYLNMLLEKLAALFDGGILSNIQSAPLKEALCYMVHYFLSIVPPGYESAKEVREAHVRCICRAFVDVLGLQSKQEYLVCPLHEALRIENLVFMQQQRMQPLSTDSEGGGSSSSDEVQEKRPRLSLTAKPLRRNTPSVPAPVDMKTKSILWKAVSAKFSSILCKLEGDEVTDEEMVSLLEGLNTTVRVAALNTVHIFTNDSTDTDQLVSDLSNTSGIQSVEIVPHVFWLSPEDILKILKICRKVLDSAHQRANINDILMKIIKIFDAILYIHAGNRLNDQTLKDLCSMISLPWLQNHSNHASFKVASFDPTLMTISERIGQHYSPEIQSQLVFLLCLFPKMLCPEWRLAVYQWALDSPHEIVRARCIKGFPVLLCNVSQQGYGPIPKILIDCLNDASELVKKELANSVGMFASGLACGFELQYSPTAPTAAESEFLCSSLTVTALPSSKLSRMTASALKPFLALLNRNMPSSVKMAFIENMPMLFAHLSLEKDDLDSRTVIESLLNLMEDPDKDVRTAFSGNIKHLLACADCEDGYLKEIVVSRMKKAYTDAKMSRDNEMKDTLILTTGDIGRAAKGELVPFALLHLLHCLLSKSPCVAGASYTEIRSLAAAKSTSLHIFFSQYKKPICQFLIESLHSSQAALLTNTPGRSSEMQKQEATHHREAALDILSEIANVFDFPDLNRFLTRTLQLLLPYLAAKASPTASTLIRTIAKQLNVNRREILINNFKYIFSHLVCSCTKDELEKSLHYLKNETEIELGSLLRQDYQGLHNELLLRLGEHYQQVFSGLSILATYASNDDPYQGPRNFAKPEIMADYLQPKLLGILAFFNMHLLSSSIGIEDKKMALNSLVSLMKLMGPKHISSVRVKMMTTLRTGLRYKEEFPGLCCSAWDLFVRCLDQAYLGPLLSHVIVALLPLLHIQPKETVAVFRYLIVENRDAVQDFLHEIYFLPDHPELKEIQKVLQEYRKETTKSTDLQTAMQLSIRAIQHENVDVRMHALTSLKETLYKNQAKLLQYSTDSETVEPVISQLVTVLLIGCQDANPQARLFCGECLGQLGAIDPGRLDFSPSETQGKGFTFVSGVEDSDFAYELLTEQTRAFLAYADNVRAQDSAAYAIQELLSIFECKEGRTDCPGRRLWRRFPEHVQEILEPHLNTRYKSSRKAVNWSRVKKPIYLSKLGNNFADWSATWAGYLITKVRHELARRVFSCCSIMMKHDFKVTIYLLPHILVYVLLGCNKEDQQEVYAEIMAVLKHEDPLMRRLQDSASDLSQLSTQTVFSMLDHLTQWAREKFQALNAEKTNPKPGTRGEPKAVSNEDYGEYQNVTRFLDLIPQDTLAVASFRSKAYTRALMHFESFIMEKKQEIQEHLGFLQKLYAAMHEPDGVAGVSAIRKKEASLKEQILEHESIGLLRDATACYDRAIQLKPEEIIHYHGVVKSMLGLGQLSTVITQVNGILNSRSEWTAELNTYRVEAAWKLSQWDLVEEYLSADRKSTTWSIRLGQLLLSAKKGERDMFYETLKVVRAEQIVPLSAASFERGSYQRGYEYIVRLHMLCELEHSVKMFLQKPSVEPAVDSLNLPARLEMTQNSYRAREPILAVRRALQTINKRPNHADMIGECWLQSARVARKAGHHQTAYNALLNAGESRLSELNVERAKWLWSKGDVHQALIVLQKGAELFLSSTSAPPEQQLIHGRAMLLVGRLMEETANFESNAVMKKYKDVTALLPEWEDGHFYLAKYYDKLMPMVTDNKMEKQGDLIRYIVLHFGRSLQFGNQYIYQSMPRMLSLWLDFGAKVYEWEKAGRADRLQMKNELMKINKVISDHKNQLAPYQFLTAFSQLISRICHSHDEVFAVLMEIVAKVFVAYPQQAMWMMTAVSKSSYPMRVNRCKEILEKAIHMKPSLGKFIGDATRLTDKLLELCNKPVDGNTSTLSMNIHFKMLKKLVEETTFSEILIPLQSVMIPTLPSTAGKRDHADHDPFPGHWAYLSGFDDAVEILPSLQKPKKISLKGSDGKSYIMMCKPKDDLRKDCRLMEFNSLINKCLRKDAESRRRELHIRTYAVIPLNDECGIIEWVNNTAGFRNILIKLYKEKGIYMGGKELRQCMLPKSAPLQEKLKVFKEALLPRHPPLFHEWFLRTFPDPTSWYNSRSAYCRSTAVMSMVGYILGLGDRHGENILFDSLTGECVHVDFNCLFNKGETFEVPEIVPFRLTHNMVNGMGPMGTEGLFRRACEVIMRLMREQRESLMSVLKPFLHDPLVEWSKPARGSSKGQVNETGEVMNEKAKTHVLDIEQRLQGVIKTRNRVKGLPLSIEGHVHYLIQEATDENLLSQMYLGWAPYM

“His6-XtopBP1 (full-length) (from UniProt Q800K6 1-1513)” yielded a half-maximal induction of kinase activity of 10 to 15 µg/mL.
